# Results taken from the DeepSol protein solubility set.
# Assay: soluble on expression in E. coli; label from the status in PepcDB or PDB records
row,Sequence,soluble on expression in E. coli
1,MSLSIISQIEACDFERLYEIEQQAHLVPWSFGTLKNNQGERYLNLKLIENNQIIGFAICQTVLDEATLFNIAILPTYQGCGFGKLLLGKLIFQLKEKGVQTLWLEVRESNSARFLYEKIGFNEVDIRKNYYPKPSGGRENAVVMACYLEGHHHHHH,not soluble
2,AIAPAKERFFGFHPCKLVEQVEDCVRDLLEDALDGLETSLFRECALAFDALQENAVTSEHEHAKRLLLQQGLMRLRDALFTAFYDQMDRLQVYLLRNVFHIPPGLRIPNVNTSEDLVENWEQALGIDPSSVQIDANAEDEHAVDQELVALRQSLRVARQRLQRLCRERSVLEGAFHRLEGALQSRLASTLIPTEPEDPSGDCDALAKQVVTIARAVSELEAVVRSCRDQFLGDRSSAASGGAPPSGTVPAAAGGSDVGAQGALVRPPLELERIFDAHTKATRVDSLDAVDALRRALHRSC,soluble
3,MATEGMILTNHDHQIRVGVLTVSDSCFRNLAEDRSGINLKDLVQDPSLLGGTISAYKIVPDEIEEIKETLIDWCDEKELNLILTTGGTGFAPRDVTPEATKEVIEREAPGMALAMLMGSLNVTPLGMLSRPVCGIRGKTLIINLPGSKKGSQECFQFILPALPHAIDLLRDAIVKVKEVHDRSHHHHHH,soluble
4,MGSDKIHHHHHHMPSSTTLQHAIENITIWRKGEQRAPHKPLLLLYVLSQYQRGHARMFDYASEIRDELHSLLERFGPQRRQYRPDMPFWRLKGDGFWELHNSDQCSTQGSRQPPGKELELCHVAGGFDEPHFALLNRNKRLINTLAHQILEAHFPESIQEELAEEMGFDLQQIRKERDPHFRQQVLRAYNYECAICGFNMRHDNTSVALEAAHIKWKQHGGPCEIPNGLALCAIHHKAFDKGSIGLDEDMRIQVSPAVNGGGIVGRLFWDFDGKPITLPQGKECYPQEGFVAWHRREVFRG,not soluble
5,MVKLENSRKPEKISNKNIPMSDFVVNLDHGDPTAYEEYWRKMGDRCTVTIRGCDLMSYFSDMTNLCWFLEPELEDAIKDLHGVVGNAATEDRYIVVGTGSTQLCQAAVHALSSLARSQPVSVVAAAPFYSTYVEETTYVRSGMYKWEGDAWGFDKKGPYIELVTSPNNPDGTIRETVVNRPDDDEAKVIHDFAYYWPHYTPITRRQDHDIMLFTFSKITGHAGSRIGWALVKDKEVAKKMVEYIIVNSIGVSKESQVRTAKILNVLKETCKSESESENFFKYGREMMKNRWEKLREVVKESDAFTLPKYPEAFCNYFGKSLESYPAFAWLGTKEETDLVSELRRHKVMSRAGERCGSDKKHVRVSMLSREDVFNVFLERLANMKLIKSIDL,soluble
6,MTYFTSWDEFAKAAERLHSANPEKCRFVTKYNHTKGQLVLKLTDDVVCLQYSTNQLQDVKKLEKLSSTLLRGIVTQ,soluble
7,MSMQHESPIKRRPSTRIYVGDVPIGDGAPIAVQSMTNTRTTDVAATVAQIKSLEKVGADIVRVSVPTMEAAEAFKLIKQQVSVPLVADIHFDYRIALKVAEYGVDCLRINPGNIGNEARIRSVVDCARDKGIPIRIGVNGGSLEKDLQLKYGEPTPEALVESAMRHVDILDRLNFDQFKVSVKASDVFLAVDSYRLLAKKIDQPLHLGITEAGGARAGSVKSAVGLGMLLAEGIGDTLRISLAADPVEEIKVGFDILKSLRIRSRGINFIACPSCSRQEFDVIGTVNALEQRLEDVLTPMDVSIIGCVVNGPGEAEVSHLGLAGSNKKSAFYEDGVRQKERFDNDDLVAQLEAKIRAKAARLDEKNRIDIKHVEQD,not soluble
8,MKITTEALRWWEDGETVGGRDLVGGGTWLGCTRHGRLAFLTNFKEASSFPAAKSRGDLPLRYLQSEKSPAEFAEEIQDEISLYNGFNLVVAHVLSKSMIYITNRPPHGDKLVTQVSPGIHVLSNANLDSPWPKVNSPNCVFLSLQCLRLREGFQQLLAENGSGEFPVKTMVEEVMTNTVKDEETELPHVFTPETEYHLSSIFVDMQRPTGRYGTRSISAIIVKSHGDGGGDGEICFYERHLEEGDSWKEHTQQFVIIQNQSI,soluble
9,MGSDKIHHHHHHMRPIQRKRVPGLNAWEARWYHGTKWVRVSSANGKSRRARRFSLMVLGGWVMERAQHNLRFTELARARAYAQAHGLRQKAVCHIVRRGTELLVFDHVPDGGAGVQVVAGGLEAGETPEQAALREAGEETGQDGFQVVGFLGSAVWLNTEHAKRELRHFVHLTAPDDLPDTWQHCADGHLFSFRWEPLHSARVDWEMDAFLPELG,not soluble
10,MEHRPVLETESNLVITLVADIVAAYVSNNSIRPTEVPSLIADVHAAFRKAGNADLTEVEVEKQRPAVNPKRSIFPDYLICLEDGKKFKSLKRHLMTHYGMLPEEYREKWQLDSSYPMVAPNYAKARSALAKEMGLGRKSKRKKTK,not soluble
11,SKNAVANSSSSEPAVSQTENASSSLEHENKARELASDAQANKTQELAPDSRQESLAPQEPFIDINRMLDSLSGDEGAVRMLLEVFIQDHAEDGSKLHKLLNEDIDNAQRAAHSLKGVSGSLGAMPLHYISGEIELLIKQGKEVPDNKLCQLRDVLQQTTLFAEKVLNSEKIREVLTD,not soluble
12,MKLEYLIDQAAGQPKKTVAVAVAEDHEVIEAVAKAIKLQLAQFRLYGNQEKIMGMLQEHGLQTSEHVEVIAAMSSAEAAELSVKAVRNGEADVLMKGNIPTANILKAVLNKEWGLRKGSVLSHVAAFEVPNYDRLIFVTDAAMNIAPDVTQKAAIIQNTVEVARAIGIDLPKVAPIAAVEVVNPAMQATIDAAMLTQMNRRGQIKDCIVDGPLALDNAVSQIAAEHKGIVSDVAGKADILLVPTIEAGNVLYKSLVYFADAKVGAMIAGAKAPIVLTSRADSAETKVYSLALAVATASK,soluble
13,MAHHHHHHMSLPIMSVVRMAVQELPLLSFAPTSLVSDGCVFLPTLSDCSAFAGCSITSATLQCDGTLLIKVVPAILRLIPLKGISSSHGYSSLAAGGSHSEAVALLKGLPTVRLQAVSPVFPLFTPGGCVEYFSATSQQTTAAVPVLTNTIREHLRRLRAYVPQHLDELVPSAPSKVSSWFVVSYPGADAVPEPCLFVLPDVLVVRTVMSQVGSRKIPPHHKRSVAVMGQSGVAKLLEELKWSGCAVRVVDDANHVCVLPPTLTAASQMKQVTH,soluble
14,MSLGGEVRGPVAVADFAKHVAQLHADGDIGFSKEYEAIQGEALNDEYPSENSQHPENKGKNRYLNVIAYDHSRVHLRQVPGQKKHLDYINANFIDGYQKPRAFIGTQGPLPGTFDCFWRMVWEQRVAVIVMITNLVERGRRKCDMYWPKDGTETYGIIQVRLVKEDVMATYTVRTLHIKHLKMKKKKQSQMEKTVYQYHYTNWPDHGTPDHPLPVINFVKKSTTANLPDGGPIVVHSSAGVGRTGTFIVLDAMLKQIEAKGSLNVFGFLRYIRAQRNYLVQTEEQYIFIHDALVEAITSGETNEGHHHHHH,soluble
15,MRTLLLAGGLLVLSGCSLLMPTPDPNRAWVDLDTQPDADLAAVEVDDKSWDRTRYFEVDPGTRELTVRYQFTVDPTNIGPVDSPLWRDCQLNLKFKDFSAGQRYRLEAGHIGFRPWAKLYDQDNRELARGREGRCAKV,not soluble
16,MSLQARVAAPVVAKEREELVDRIEGETSAADELEKSVDELRDDVDARRREALEKSGDGDRSDLVGILSGAVEVHGPGVKLVVNDAKDVATGADGQPRGTSGFSDTGRVRDRDMQRVVNGLWESGAEAISVNGQRLTALSAIRAAGDAILVDNRPLVPPYTVLAVGDGERLSRGFQDSADGLYLHALEESYGIRTAISVADDLKLPAAPSVIVRTAQPITEKGTSEGHHHHHH,soluble
17,MTKPVVDVKNVQKVYGKKGENQSHALKGVSFSIQEGEFVGIMGPSGSGKTTLLNVISTLDKATGGVVEIAGTDITKMKQGELSDFRSQKLGFIFQDFNLLENLSIYENIALPLSLQGVPSRNIGPKVEKVADMLGISAILQKYPSEVSGGQKQRSAAARALVHEPAIILGDEPTGALDSKNATSLLDAMTNLNQEQGVSIMMVTHDPFSASYCQRILFIQDGELYKEIHRGGTREEFYKEILDVLADLGTQKA,not soluble
18,VKFLTVNDDILSMPQARNFCASAGGYLADDLGDDKNNFYSSIAANTQFWIGLFKNSDGQFYWDRGQGINPDLLNQPITYWANGEPSNDPTRQCVYFDGRSGDKSKVWTTDTCATPRPFICQKHRYDSDHKPNTIGDA,soluble
19,MGSDKIHHHHHHMIFLIFSILFLHLANCDYTPDWESLDNRPLPSWYDDSKFGIFCHWGLYSDDNDKNKKYKTRSEWMWWYWKGTQPDKDVVNFVDKNYKPGTTYADFAKDVCNILLFAIESDFCSLPQSISMRINLLKLYFVFTSKHHEGFTMWPSRTSWNWNSMDIGPKRDIVGELRDAFKKTDVHFGLYFSQFEWFHPMFLDDGKFNTTFYPEQVSYPQMIDIVTKYNPEVVWSDGEWDKSDDYWKAKEFLAWLYNSSPVKDQVVVNDRWGTGTMGKHGGFMTYSDHYDPGKLLEKKWENCMTLDKHSWGNRRDMKASEVNTAYEIIEQLARTIACNGNLLLNVGPNMHGQIPAIFEDRLEEIGRFVNITSEAIFGTRPWIHQNDTSASNVWYVEFQQLSTHVFSGILPNIHRERSH,not soluble
20,MKVKEHCGIVGVYADNSPMISYESLKLLQHRGQESAGITYRKDGSLVTMKGLGLVEEALDPRLLPNAKLSIGHVRYSTTGKGSLDEAQPLSNGKIAIAFNGTITNYFKFGTSTDTEFILKVLSEAPNIKEGIRRLVDLADGAYSLVVLTNEGELIGFRDPKGFRPLVLGKINNGYIIASEDSVIRQLGGKPLRDVKPGEMIYIKDGEIESEVISRDRVSFCSFEYIYFARPDSIIDGVSVYNSRIKLGEILAENHGVDADVAIPVPESSIPIAIGFSRKSKIPMEYGLIRTLVAKRSFIMPTQDKRNAVLEEKFGIVKSVVENKKVVVIDDSIVRGNTMRKIVRMIRDNGAKEVHVRIGSPKVKYPCYMGIDFPLSKELIASEKDEKEIAKYIGADSVEFLTVEEMIKAIGRPDLCHACFSGVYPLKFSYNLQVLESIFKKVS,soluble
21,MSLADIPYGTDYPDAPWIDRDGHVLIDDGGKPTQVHRGQARIAYRLAERYQDKLLHVAGIGWHSWDGRRWAADDRGEAKRAVLAELRQALSDSLNDKELRADVRKCESASGVAGVLDLAAALVPFAATVADLDSDPHLLNVANGTLDLHTLKLRPHAPADRITKICRGAYQSDTESPLWQAFLTRVLPDEGVRGFVQRLAGVGLLGTVREHVLAILIGVGANGKSVFDKAIRYALGDYACTAEPDLFMHRENAHPTGEMDLRGVRWVAVSESEKDRRLAESTIKRLTGGDTIRARKMRQDFVEFTPSHTPLLITNHLPRVPGDDTAIWRRIRVVPFEVVIPADEQDRELDARLQLEADSILSWAVAGWSDYQRIGLSQPDAVLAATSNYREDSDTIKRFIDDECVTSSPVLKATTTHLFEAWQRWRVQEGVPEISRKAFGQSLDTHGYPVTEGHHHHHH,not soluble
22,MGSDKIHHHHHHMLLPLSSQNVIQHLQAADLCSSEDGKSDIVELPISKKNYNLVVNLADNRKLLVKQERGVENDGILHELFNEWLFHQLLQKFPILGNISAIAPLVVHFDEENSILVRSYLSEYLDLAEFYQNPNVFPKEIAAAIGTTLAALHRTTFQGKEYRDFMATAPQGQFRYHFYNPAQGISSLNPEIFGRIPTEALKFHVLYQCYESLEAAIADLAYEWDACCLTHNDLKLNNILIHSRWNQLDNCLVQLIDWEACTWGDPAFDLGTILASYLEIWLESLVVDPTLELAESLELVMIPLEEIQPSLVALLQAYLQAFPMILEYHPNFLVRVIKFIGLALIHQIQDKINNCKLFDNSHLYMLQVAKNLLTMPEQSILSIFGISEAEILSPVAKVPQVSHPEKEKQLVPLYYEKTRLRGC,not soluble
